According to patent publication US20260078182A1:

Biological target: CCR4 (human) (UniProt P51679)
Assay: cell-based or functional assay

Chain of UniProt P51679 (P51679 whole entry): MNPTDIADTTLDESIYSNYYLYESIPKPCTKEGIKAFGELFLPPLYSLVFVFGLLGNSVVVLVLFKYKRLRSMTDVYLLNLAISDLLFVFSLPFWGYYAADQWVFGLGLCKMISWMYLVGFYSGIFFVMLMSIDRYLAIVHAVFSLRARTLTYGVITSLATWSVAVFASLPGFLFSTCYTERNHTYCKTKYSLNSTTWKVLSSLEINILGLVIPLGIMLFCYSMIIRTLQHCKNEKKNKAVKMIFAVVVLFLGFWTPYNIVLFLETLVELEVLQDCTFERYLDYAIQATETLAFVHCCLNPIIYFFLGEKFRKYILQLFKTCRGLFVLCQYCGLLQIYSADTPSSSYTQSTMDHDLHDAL

## mogamulizumab (antibody)
  EC50 (pM), cytotoxicity of the negative control antibody against MT-2 cells expressing CCR4 with T-LAK effector cells (calcein release): 1140 pM
  Emax (%), cytotoxicity of the negative control antibody against MT-2 cells expressing CCR4 with T-LAK effector cells (calcein release): 8.5%
